Tested on: Escherichia coli TOP10
Assay: shrunken log2 fold change of peptide-encoding DNA abundance (4.5 h post-induction vs induction); higher = less antimicrobial activity (less host growth inhibition)
Conditions: time post-induction: 4.5 h; library: site-saturation at positions 5, 18, 19, 20
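Also: peptides expressed intracellularly from a pBAD plasmid library in pooled LB shake-flask culture, induced with 0.3% L-arabinose, DNA abundance read by NGS, three biological replicates, DESeq2 with apeglm shrinkage.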

Row | Sequence | shrunken log2 fold change
1 | RRIRQRPPRLPRPRPRPGKKPRP | 0.0943
2 | RRIRQRPPRLPRPRPRPGKSPRP | -0.103
3 | RRIRQRPPRLPRPRPRPGLCPRP | -0.0449
4 | RRIRQRPPRLPRPRPRPGLWPRP | 0.452
5 | RRIRQRPPRLPRPRPRPGMIPRP | -0.446
6 | RRIRQRPPRLPRPRPRPGRCPRP | 0.321
7 | RRIRQRPPRLPRPRPRPGSMPRP | -0.174
8 | RRIRQRPPRLPRPRPRPGSSPRP | -0.172
9 | RRIRQRPPRLPRPRPRPGVYPRP | 0.0572
10 | RRIRQRPPRLPRPRPRPGWCPRP | 0.0842
11 | RRIRQRPPRLPRPRPRPGWPPRP | 0.514
12 | RRIRQRPPRLPRPRPRPGYHPRP | -0.108
13 | RRIRQRPPRLPRPRPRPGYPPRP | -0.181
14 | RRIRQRPPRLPRPRPRPHAFPRP | -0.0738
15 | RRIRQRPPRLPRPRPRPHALPRP | -0.6
16 | RRIRQRPPRLPRPRPRPHASPRP | -0.00783
17 | RRIRQRPPRLPRPRPRPHCTPRP | 0.157
18 | RRIRQRPPRLPRPRPRPHDWPRP | -0.372
19 | RRIRQRPPRLPRPRPRPHFFPRP | -0.0162
20 | RRIRQRPPRLPRPRPRPHGKPRP | -0.352
21 | RRIRQRPPRLPRPRPRPHGTPRP | -0.0865
22 | RRIRQRPPRLPRPRPRPHHCPRP | -0.652
23 | RRIRQRPPRLPRPRPRPHHKPRP | -0.205
24 | RRIRQRPPRLPRPRPRPHIIPRP | -0.362
25 | RRIRQRPPRLPRPRPRPHITPRP | -1.1

Row | Sequence | shrunken log2 fold change
26 | RRIRQRPPRLPRPRPRPHKGPRP | -0.214
27 | RRIRQRPPRLPRPRPRPHKNPRP | -0.194
28 | RRIRQRPPRLPRPRPRPHLKPRP | -0.0175
29 | RRIRQRPPRLPRPRPRPHLSPRP | -0.00594
30 | RRIRQRPPRLPRPRPRPHMSPRP | -0.28
31 | RRIRQRPPRLPRPRPRPHNAPRP | -0.0184
32 | RRIRQRPPRLPRPRPRPHNHPRP | -0.811
33 | RRIRQRPPRLPRPRPRPHNVPRP | -0.0684
34 | RRIRQRPPRLPRPRPRPHPSPRP | -0.462
35 | RRIRQRPPRLPRPRPRPHQDPRP | -0.327
36 | RRIRQRPPRLPRPRPRPHQKPRP | -0.0904
37 | RRIRQRPPRLPRPRPRPHQRPRP | 0.153
38 | RRIRQRPPRLPRPRPRPHRCPRP | 0.109
39 | RRIRQRPPRLPRPRPRPHVIPRP | -0.186
40 | RRIRQRPPRLPRPRPRPHVPPRP | -0.0247
41 | RRIRQRPPRLPRPRPRPHWMPRP | -0.0751
42 | RRIRQRPPRLPRPRPRPHWTPRP | -0.0125
43 | RRIRQRPPRLPRPRPRPHYRPRP | -0.0839
44 | RRIRQRPPRLPRPRPRPIAGPRP | 0.139
45 | RRIRQRPPRLPRPRPRPICWPRP | 0.0153
46 | RRIRQRPPRLPRPRPRPICYPRP | 0.0933
47 | RRIRQRPPRLPRPRPRPIDCPRP | 0.0167
48 | RRIRQRPPRLPRPRPRPIDWPRP | 1.59e-05
49 | RRIRQRPPRLPRPRPRPIFRPRP | 0.0716
50 | RRIRQRPPRLPRPRPRPIFWPRP | 0.142

Row | Sequence | shrunken log2 fold change
51 | RRIRQRPPRLPRPRPRPIIPPRP | -0.904
52 | RRIRQRPPRLPRPRPRPINAPRP | -0.116
53 | RRIRQRPPRLPRPRPRPINRPRP | -0.341
54 | RRIRQRPPRLPRPRPRPINWPRP | -0.0302
55 | RRIRQRPPRLPRPRPRPINYPRP | -0.0444
56 | RRIRQRPPRLPRPRPRPIPRPRP | 0.145
57 | RRIRQRPPRLPRPRPRPIQEPRP | -0.142
58 | RRIRQRPPRLPRPRPRPIREPRP | -0.0225
59 | RRIRQRPPRLPRPRPRPIRHPRP | -0.182
60 | RRIRQRPPRLPRPRPRPIRWPRP | -0.0554
61 | RRIRQRPPRLPRPRPRPISQPRP | 0.0474
62 | RRIRQRPPRLPRPRPRPITHPRP | -0.102
63 | RRIRQRPPRLPRPRPRPIWFPRP | -0.000433
64 | RRIRQRPPRLPRPRPRPIYKPRP | -0.12
65 | RRIRQRPPRLPRPRPRPIYPPRP | -0.121
66 | RRIRQRPPRLPRPRPRPKAEPRP | 0.45
67 | RRIRQRPPRLPRPRPRPKAWPRP | -0.0334
68 | RRIRQRPPRLPRPRPRPKCSPRP | -0.0276
69 | RRIRQRPPRLPRPRPRPKEGPRP | -0.0167
70 | RRIRQRPPRLPRPRPRPKEQPRP | -0.0394
71 | RRIRQRPPRLPRPRPRPKFHPRP | -0.0648
72 | RRIRQRPPRLPRPRPRPKGGPRP | 0.0347
73 | RRIRQRPPRLPRPRPRPKKVPRP | -0.0514
74 | RRIRQRPPRLPRPRPRPKLMPRP | -0.082
75 | RRIRQRPPRLPRPRPRPKLQPRP | 1.59

Row | Sequence | shrunken log2 fold change
76 | RRIRQRPPRLPRPRPRPKLVPRP | -0.0518
77 | RRIRQRPPRLPRPRPRPKMRPRP | 0.0141
78 | RRIRQRPPRLPRPRPRPKPPPRP | 0.27
79 | RRIRQRPPRLPRPRPRPKSFPRP | 0.0406
80 | RRIRQRPPRLPRPRPRPKTCPRP | -0.0119
81 | RRIRQRPPRLPRPRPRPKTHPRP | -0.389
82 | RRIRQRPPRLPRPRPRPKVCPRP | -0.193
83 | RRIRQRPPRLPRPRPRPKVLPRP | 0.0378
84 | RRIRQRPPRLPRPRPRPKYNPRP | -0.879
85 | RRIRQRPPRLPRPRPRPLCCPRP | -0.382
86 | RRIRQRPPRLPRPRPRPLDDPRP | -0.0837
87 | RRIRQRPPRLPRPRPRPLDRPRP | 0.0981
88 | RRIRQRPPRLPRPRPRPLHNPRP | 0.00263
89 | RRIRQRPPRLPRPRPRPLKAPRP | -0.253
90 | RRIRQRPPRLPRPRPRPLKCPRP | -0.139
91 | RRIRQRPPRLPRPRPRPLKDPRP | -0.164
92 | RRIRQRPPRLPRPRPRPLKHPRP | -0.589
93 | RRIRQRPPRLPRPRPRPLKLPRP | -0.017
94 | RRIRQRPPRLPRPRPRPLLAPRP | 0.328
95 | RRIRQRPPRLPRPRPRPLLCPRP | 0.126
96 | RRIRQRPPRLPRPRPRPLLWPRP | 0.091
97 | RRIRQRPPRLPRPRPRPLMGPRP | -0.121
98 | RRIRQRPPRLPRPRPRPLPCPRP | -0.00831
99 | RRIRQRPPRLPRPRPRPLQKPRP | -0.0062
100 | RRIRQRPPRLPRPRPRPLQNPRP | 0.139

Row | Sequence | shrunken log2 fold change
101 | RRIRQRPPRLPRPRPRPLSGPRP | -0.252
102 | RRIRQRPPRLPRPRPRPLSSPRP | -0.055
103 | RRIRQRPPRLPRPRPRPLTNPRP | -0.483
104 | RRIRQRPPRLPRPRPRPLTSPRP | -0.254
105 | RRIRQRPPRLPRPRPRPLTTPRP | 0.106
106 | RRIRQRPPRLPRPRPRPLVSPRP | 0.00785
107 | RRIRQRPPRLPRPRPRPLYKPRP | -1.34
108 | RRIRQRPPRLPRPRPRPMCWPRP | -0.00818
109 | RRIRQRPPRLPRPRPRPMHCPRP | 0.0165
110 | RRIRQRPPRLPRPRPRPMHHPRP | -0.288
111 | RRIRQRPPRLPRPRPRPMKFPRP | -0.21
112 | RRIRQRPPRLPRPRPRPMMFPRP | -0.3
113 | RRIRQRPPRLPRPRPRPMMIPRP | -0.0862
114 | RRIRQRPPRLPRPRPRPMMKPRP | -0.0269
115 | RRIRQRPPRLPRPRPRPMPPPRP | 0.517
116 | RRIRQRPPRLPRPRPRPMQEPRP | 0.0325
117 | RRIRQRPPRLPRPRPRPMQFPRP | 0.0624
118 | RRIRQRPPRLPRPRPRPMQNPRP | -0.324
119 | RRIRQRPPRLPRPRPRPMTMPRP | -0.243
120 | RRIRQRPPRLPRPRPRPMVEPRP | 0.168
121 | RRIRQRPPRLPRPRPRPMVWPRP | -0.0183
122 | RRIRQRPPRLPRPRPRPMWCPRP | -0.339
123 | RRIRQRPPRLPRPRPRPMYKPRP | -0.0194
124 | RRIRQRPPRLPRPRPRPMYMPRP | -0.0317
125 | RRIRQRPPRLPRPRPRPNAEPRP | 0.053

Row | Sequence | shrunken log2 fold change
126 | RRIRQRPPRLPRPRPRPNANPRP | 0.00568
127 | RRIRQRPPRLPRPRPRPNARPRP | -0.0902
128 | RRIRQRPPRLPRPRPRPNEHPRP | -0.0963
129 | RRIRQRPPRLPRPRPRPNIGPRP | -0.0212
130 | RRIRQRPPRLPRPRPRPNIVPRP | -0.044
131 | RRIRQRPPRLPRPRPRPNKQPRP | 0.0262
132 | RRIRQRPPRLPRPRPRPNKVPRP | -0.468
133 | RRIRQRPPRLPRPRPRPNLAPRP | 0.281
134 | RRIRQRPPRLPRPRPRPNMQPRP | -0.619
135 | RRIRQRPPRLPRPRPRPNQNPRP | -0.24
136 | RRIRQRPPRLPRPRPRPNQSPRP | -0.0722
137 | RRIRQRPPRLPRPRPRPNTNPRP | -0.47
138 | RRIRQRPPRLPRPRPRPNVFPRP | -0.14
139 | RRIRQRPPRLPRPRPRPNWHPRP | 0.141
140 | RRIRQRPPRLPRPRPRPNWRPRP | 0.107
141 | RRIRQRPPRLPRPRPRPPATPRP | 0.452
142 | RRIRQRPPRLPRPRPRPPCDPRP | -0.0587
143 | RRIRQRPPRLPRPRPRPPDGPRP | 0.351
144 | RRIRQRPPRLPRPRPRPPDKPRP | -0.116
145 | RRIRQRPPRLPRPRPRPPFFPRP | 0.249
146 | RRIRQRPPRLPRPRPRPPFIPRP | -0.0092
147 | RRIRQRPPRLPRPRPRPPFTPRP | -0.0512
148 | RRIRQRPPRLPRPRPRPPGAPRP | 0.757
149 | RRIRQRPPRLPRPRPRPPGEPRP | 0.119
150 | RRIRQRPPRLPRPRPRPPHIPRP | 0.213

Source: the supplement of paper PMC9112550, “Optimization of the antimicrobial peptide Bac7 by deep mutational scanning” (BMC Biology, 2022)
